Data: PMC4207752 (2014)

Target: F-actin (skeletal muscle) (Oryctolagus cuniculus, UniProt P68135)
Assay: co-sedimentation assay

Kd: ~45 µM
B1: dystrophin N-ABD K18N 1-246 (protein)
chain: MLWWEEVEDCYEREDVQNKTFTKWVNAQFSKFGKQHIENLFSDLQDGRRLLDLLEGLTGQKLPKEKGSTRVHALNNVNKALRVLQNNNVDLVNIGSTDIVDGNHKLTLGLIWNIILHWQVKNVMKNIMAGLQQTNSEKILLSWVRQSTRNYPQVNVINFTTSWSDGLALNALIHSHRPDLFDWNSVVCQQSATQRLEHAFNIARYQLGIEKLLDPEDVDTTYPDKKSILMYITSLFQVLPQQVSIE
